Results reported in US20230374132A1 (Innovent, published 2023).
Positions count from the first letter of the chain named. In names and notes the source's numbering stands. Read-outs that look alike come from different tables or passages of the source. One block for each binder: values may come before it.

What was measured:
Assay in all cases: BLI, antibody on sensor
[1] = biological target: T1, human CD3 E&D complex protein (Sino Biological Inc., CT026H0323H) (human, UniProt P07766 23-126; P04234 22-105)
T1 construct: bought heterodimer; also called human CD3 protein (CT026H0323H)
Procedure: (§1) 100 μl SD buffer, various antibodies, human CD3 E&D complex protein (Sino Biological Inc., CT026H0323H), and cynomolgus monkey CD3 E&D complex protein (Sino Biological Inc., CT032-00323H) were added into 96-well black polystyrene semi-quantitative micro-well plate (Greiner, 675076) respectively. Fortebio Octet Red 96 was used for detection, and the sensor position was selected according to the sample position. The setting parameters of the instrument are as follows: operation steps: Baseline, Loading-1 nm, Baseline, Association and Dissociation; the operation time of each step depends on the speed of sample association and dissociation. The rotational speed is 1000 rpm and the temperature is 30° C. ForteBio Octet analysis software was used to analyze KD value.

[2] = biological target: T2, cynomolgus monkey CD3 E&D complex protein (Sino Biological Inc., CT032-00323H) (cynomolgus monkey, UniProt Q95LI5 22-117; Q95LI8 22-105)
T2 construct: bought heterodimer
Procedure: as §1

[3] = biological target: T1, human CD3 E&D complex protein (Sino …); remark: listed apart in the source
[4] = biological target: T3, human CD3E&G complex (Sino Biological Inc., CT041-H0305H) (human, UniProt P07766 23-126; P09693 23-116)
T3 construct: bought heterodimer; also called human CD3E&G antigen
T3 sequence (P07766 23-126, chain 1 of 2): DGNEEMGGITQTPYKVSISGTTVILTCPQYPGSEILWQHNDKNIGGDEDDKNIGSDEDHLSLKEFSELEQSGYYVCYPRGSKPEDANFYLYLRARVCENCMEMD
T3 sequence (P09693 23-116, chain 2 of 2): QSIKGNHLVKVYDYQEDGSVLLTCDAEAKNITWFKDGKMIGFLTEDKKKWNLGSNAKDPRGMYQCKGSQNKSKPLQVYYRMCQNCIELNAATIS

T2 sequence (Q95LI5 22-117, chain 1 of 2): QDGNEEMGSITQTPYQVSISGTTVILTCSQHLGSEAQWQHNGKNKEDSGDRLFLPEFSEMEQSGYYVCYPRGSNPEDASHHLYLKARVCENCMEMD
T2 sequence (Q95LI8 22-105, chain 2 of 2): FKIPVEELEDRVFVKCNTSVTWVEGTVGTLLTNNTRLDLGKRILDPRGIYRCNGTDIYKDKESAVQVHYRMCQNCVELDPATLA
T1 sequence (P07766 23-126, chain 1 of 2): as the sequence (P07766 23-126, chain 1 of 2) above
T1 sequence (P04234 22-105, chain 2 of 2): as the sequence (Q95LI8 22-105, chain 2 of 2) above, with V5I, K15N, V20I, T32S, N33D, N34I, A64T, N74S, L83V counted along it

B2: hzsp34.13 (antibody, human IgG1, lambda, L234A L235A, V domains shown)
VH: EVQLVESGGGLVQPGGSLKLSCAASGFTFNTYAMNWVRQASGKGLEWVGRIRSKYNNYATYYADSVKDRFTISRDDSKSTLYLQMNSLKTEDTAVYYCARHGNFGNSYVSWFAYWGQGTTVTVSS
VL: QAVVTQEPSLTVSPGGTVTLTCRSSTGAVTTSNYANWVQQKPGQAPRTLIGGTNKRAPGVPARFSGSLLGGKAALTLLGAQPEDEAEYYCALWYSNLWVFGQGTKLTVLG
notes: IgG1 L234A L235A, lambda
Kd [1]: 4.33 nM
koff [1]: 0.00466 s⁻¹
kon [1]: 1.08e+06 M⁻¹ s⁻¹
Kd [2]: 1.75 nM
koff [2]: 0.00164 s⁻¹
kon [2]: 937000 M⁻¹ s⁻¹

B3: hzsp34.115 (antibody, human IgG1, lambda, L234A L235A, V domains shown)
VH: B2 VH with N106Q
VL: B2 VL with T48G, K55S, G71D
notes: CDR mutant of hzsp34.24; IgG1 L234A L235A, lambda
Kd [3]: 1.26 nM
koff [3]: 0.000331 s⁻¹
kon [3]: 264000 M⁻¹ s⁻¹
Kd [4]: 7.7 nM
koff [4]: 0.00184 s⁻¹
kon [4]: 238000 M⁻¹ s⁻¹

B4: hzsp34.113 (antibody, human IgG1, lambda, L234A L235A, V domains shown)
VH: B2 VH with N106Q
VL: B2 VL with T48G, G71D, W93A, Y94A
notes: as for B3
Kd [3]: 1.02 nM
koff [3]: 0.0002 s⁻¹
kon [3]: 196000 M⁻¹ s⁻¹
Kd [4]: 3.71 nM
koff [4]: 0.000811 s⁻¹
kon [4]: 219000 M⁻¹ s⁻¹

B6: hzsp34.10 (antibody, human IgG1, lambda, L234A L235A, V domains shown)
VH: B2 VH with G49A, N106Q
VL: B2 VL with V38F, G51Y, G59W, V60T
notes: IgG1 L234A L235A, lambda
binding result [1]: no binding
binding result [2]: no binding

B8: hzsp34.9 (antibody, human IgG1, lambda, L234A L235A, V domains shown)
VH: B2 VH with N106Q
VL: B2 VL with V38F, G51Y, G59W, V60T
notes: IgG1 L234A L235A, lambda
binding result [1]: no binding
binding result [2]: no binding

B9: hzsp34.7 (antibody, human IgG1, lambda, L234A L235A, V domains shown)
VH: B2 VH with S79N
VL: B2 VL with V38F, G51Y, G59W, V60T
notes: IgG1 L234A L235A, lambda
binding result [1]: no binding
Kd [2]: 1.66 nM
koff [2]: 0.000463 s⁻¹
kon [2]: 279000 M⁻¹ s⁻¹

B11: hzsp34.27 (antibody, human IgG1, kappa, L234A L235A, V domains shown)
VH: B2 VH with S79N
VL: EIVMTQSPATLSVSPGERATLSCRSSTGAVTTSNYANWYQQKPGQAPRLLIYGTNKRAPGIPARFSGSGSGTEFTLTISSLQSEDFAVYYCALWYSNLWVFGQGTKLTVLR
notes: IgG1 L234A L235A, kappa
binding result [1]: no binding
binding result [2]: no binding

B12: hzsp34.25 (antibody, human IgG1, lambda, L234A L235A, V domains shown)
VH: B2 VH with G49A, N106Q
VL: B2 VL with T48G, G71D
notes: IgG1 L234A L235A, lambda
Kd [1]: 1.17 nM
koff [1]: 0.00273 s⁻¹
kon [1]: 2.35e+06 M⁻¹ s⁻¹
Kd [2]: 0.857 nM
koff [2]: 0.000913 s⁻¹
kon [2]: 1.07e+06 M⁻¹ s⁻¹

B13: hzsp34.15 (antibody, human IgG1, lambda, L234A L235A, V domains shown)
VH: B2 VH with G49A, N106Q
VL: B2 VL
notes: IgG1 L234A L235A, lambda
Kd [1]: 3.13 nM
koff [1]: 0.00202 s⁻¹
kon [1]: 644000 M⁻¹ s⁻¹
Kd [2]: 1.75 nM
koff [2]: 0.00115 s⁻¹
kon [2]: 658000 M⁻¹ s⁻¹

B15: hzsp34.29 (antibody, human IgG1, kappa, L234A L235A, V domains shown)
VH: B2 VH with N106Q
VL: B11 VL
notes: IgG1 L234A L235A, kappa
binding result [1]: no binding
binding result [2]: no binding

B17: hzsp34.17 (antibody, human IgG1, lambda, L234A L235A, V domains shown)
VH: B2 VH with S79N
VL: B2 VL with T48G
notes: IgG1 L234A L235A, lambda
Kd [1]: 0.51 nM
koff [1]: 0.00206 s⁻¹
kon [1]: 4.04e+06 M⁻¹ s⁻¹
Kd [2]: 0.514 nM
koff [2]: 0.000915 s⁻¹
kon [2]: 1.78e+06 M⁻¹ s⁻¹

B19: hzsp34.44 (antibody, human IgG1, kappa, L234A L235A, V domains shown)
VH: B2 VH with N106Q
VL: B11 VL with Y39V, L49G, Y52G, I61V, T72D
notes: IgG1 L234A L235A, kappa
Kd [1]: 16.5 nM
koff [1]: 0.00581 s⁻¹
kon [1]: 353000 M⁻¹ s⁻¹
Kd [2]: 12.1 nM
koff [2]: 0.00293 s⁻¹
kon [2]: 241000 M⁻¹ s⁻¹

B20: hzsp34.30 (antibody, human IgG1, kappa, L234A L235A, V domains shown)
VH: B2 VH with G49A, N106Q
VL: B11 VL
notes: IgG1 L234A L235A, kappa
binding result [1]: no binding
binding result [2]: no binding

B21: hzsp34.22 (antibody, human IgG1, lambda, L234A L235A, V domains shown)
VH: B2 VH with S79N
VL: B2 VL with T48G, G71D
notes: IgG1 L234A L235A, lambda
Kd [1]: 0.605 nM
koff [1]: 0.00214 s⁻¹
kon [1]: 3.54e+06 M⁻¹ s⁻¹
Kd [2]: 0.585 nM
koff [2]: 0.000886 s⁻¹
kon [2]: 1.52e+06 M⁻¹ s⁻¹

B23: hzsp34.35 (antibody, human IgG1, kappa, L234A L235A, V domains shown)
VH: B2 VH with G49A, N106Q
VL: B11 VL with Y39V, Y52G, I61V
notes: IgG1 L234A L235A, kappa
binding result [1]: no binding
binding result [2]: no binding

B24: hzsp34.43 (antibody, human IgG1, kappa, L234A L235A, V domains shown)
VH: B2 VH
VL: B11 VL with Y39V, L49G, Y52G, I61V, T72D
notes: IgG1 L234A L235A, kappa
Kd [1]: 12.6 nM
koff [1]: 0.00453 s⁻¹
kon [1]: 359000 M⁻¹ s⁻¹
Kd [2]: 7.92 nM
koff [2]: 0.00201 s⁻¹
kon [2]: 253000 M⁻¹ s⁻¹

B25: hzsp34.37 (antibody, human IgG1, kappa, L234A L235A, V domains shown)
VH: B2 VH with S79N
VL: B11 VL with Y39V, L49G, Y52G, I61V
notes: IgG1 L234A L235A, kappa
Kd [1]: 9.16 nM
koff [1]: 0.00399 s⁻¹
kon [1]: 436000 M⁻¹ s⁻¹
Kd [2]: 6.24 nM
koff [2]: 0.002 s⁻¹
kon [2]: 321000 M⁻¹ s⁻¹

B27: hzsp34.34 (antibody, human IgG1, kappa, L234A L235A, V domains shown)
VH: B2 VH with N106Q
VL: B11 VL with Y39V, Y52G, I61V
notes: IgG1 L234A L235A, kappa
binding result [1]: no binding
binding result [2]: no binding

Other lines, results leading:

binding result [1]: no binding
binding result [2]: no binding
B1: hzsp34.8 (antibody, human IgG1, lambda, L234A L235A, V domains shown)
VH: B2 VH
VL: B2 VL with V38F, G51Y, G59W, V60T
notes: IgG1 L234A L235A, lambda

Kd [1]: 0.613 nM
koff [1]: 0.00233 s⁻¹
kon [1]: 3.8e+06 M⁻¹ s⁻¹
Kd [2]: 0.602 nM
koff [2]: 0.00099 s⁻¹
kon [2]: 1.64e+06 M⁻¹ s⁻¹
B5: hzsp34.19 (antibody, human IgG1, lambda, L234A L235A, V domains shown)
VH: B2 VH with N106Q
VL: B2 VL with T48G
notes: IgG1 L234A L235A, lambda

Kd [3]: 0.722 nM
koff [3]: 0.000204 s⁻¹
kon [3]: 282000 M⁻¹ s⁻¹
Kd [4]: 6.6 nM
koff [4]: 0.00155 s⁻¹
kon [4]: 235000 M⁻¹ s⁻¹
B7: hzsp34.112 (antibody, human IgG1, lambda, L234A L235A, V domains shown)
VH: B2 VH with N106Q
VL: B2 VL with S32R, N33G, T48G, G71D
notes: as for B3

Kd [3]: 1.08 nM
koff [3]: 0.000282 s⁻¹
kon [3]: 262000 M⁻¹ s⁻¹
Kd [4]: 6.69 nM
koff [4]: 0.00134 s⁻¹
kon [4]: 200000 M⁻¹ s⁻¹
B10: hzsp34.114 (antibody, human IgG1, lambda, L234A L235A, V domains shown)
VH: B2 VH with N106Q
VL: B2 VL with T48G, G71D, S95R, N96G
notes: as for B3

Kd [1]: 7.85 nM
koff [1]: 0.00354 s⁻¹
kon [1]: 451000 M⁻¹ s⁻¹
Kd [2]: 7.1 nM
koff [2]: 0.00203 s⁻¹
kon [2]: 286000 M⁻¹ s⁻¹
B14: hzsp34.39 (antibody, human IgG1, kappa, L234A L235A, V domains shown)
VH: B2 VH with N106Q
VL: B11 VL with Y39V, L49G, Y52G, I61V
notes: IgG1 L234A L235A, kappa

Kd [1]: 0.629 nM
koff [1]: 0.00208 s⁻¹
kon [1]: 3.31e+06 M⁻¹ s⁻¹
Kd [2]: 0.67 nM
koff [2]: 0.00088 s⁻¹
kon [2]: 1.31e+06 M⁻¹ s⁻¹
B16: hzsp34.18 (antibody, human IgG1, lambda, L234A L235A, V domains shown)
VH: B2 VH
VL: B2 VL with T48G
notes: IgG1 L234A L235A, lambda

Kd [1]: 2.41 nM
koff [1]: 0.00159 s⁻¹
kon [1]: 661000 M⁻¹ s⁻¹
Kd [2]: 0.195 nM
koff [2]: 9.49e-05 s⁻¹
kon [2]: 488000 M⁻¹ s⁻¹
B18: hzsp34.14 (antibody, human IgG1, lambda, L234A L235A, V domains shown)
VH: B2 VH with N106Q
VL: B2 VL
notes: IgG1 L234A L235A, lambda

Kd [1]: 0.554 nM
koff [1]: 0.00198 s⁻¹
kon [1]: 3.57e+06 M⁻¹ s⁻¹
Kd [2]: 0.605 nM
koff [2]: 0.000791 s⁻¹
kon [2]: 1.31e+06 M⁻¹ s⁻¹
B22: hzsp34.23 (antibody, human IgG1, lambda, L234A L235A, V domains shown)
VH: B2 VH
VL: B2 VL with T48G, G71D
notes: IgG1 L234A L235A, lambda

Kd [1]: 0.847 nM
koff [1]: 0.00275 s⁻¹
kon [1]: 3.25e+06 M⁻¹ s⁻¹
Kd [2]: 0.756 nM
koff [2]: 0.0011 s⁻¹
kon [2]: 1.46e+06 M⁻¹ s⁻¹
B26: hzsp34.20 (antibody, human IgG1, lambda, L234A L235A, V domains shown)
VH: B2 VH with G49A, N106Q
VL: B2 VL with T48G
notes: IgG1 L234A L235A, lambda

binding result [1]: no binding
binding result [2]: no binding
B28: hzsp34.32 (antibody, human IgG1, kappa, L234A L235A, V domains shown)
VH: B2 VH with S79N
VL: B11 VL with Y39V, Y52G, I61V
notes: IgG1 L234A L235A, kappa
